Measured values published in US20200255516A1.

Molecular target: Full-length human TIGIT on CHO cells overexpressing TIGIT (human) (UniProt Q495A1)
Test: FACS blocking assay on TIGIT-CHO cells; competitor CF633-labeled CD155-Fc at 2 ug/ml

Sequence of Full-length human TIGIT on CHO cells overexpressing TIGIT (human) (Q495A1 22-244 limits assumed): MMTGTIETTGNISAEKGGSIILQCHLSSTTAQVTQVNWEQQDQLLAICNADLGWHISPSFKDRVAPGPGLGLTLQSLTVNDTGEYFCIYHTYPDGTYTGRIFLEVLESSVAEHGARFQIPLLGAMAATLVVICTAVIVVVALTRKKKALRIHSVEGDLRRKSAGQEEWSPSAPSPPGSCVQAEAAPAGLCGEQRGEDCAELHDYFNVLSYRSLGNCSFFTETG

Q: With human IgG4 antibody (hIgG4) as the substance, how does the IC50 read?
A: > 10 µM
